B1: HC84.24 (antibody, V domains shown)
VH: QVQLVQSGAEVKKPGSSVKVSCKASGGTFSLNSLSWVRQAPGQGLEWMGTIIPIVGIANYAQKFQGRVTITADKSTGTAYMDLSSLSDDTAVYFCARELYSGTGFFRLEALDYWGQGTLVTVSS
VL: DIQMTQSPATLSLSPGERATLSCRASQSVSSYLAWYQQKPGQAPRLLIYDASNRATGIPARFIAGGSGTDFTLTISSLEPEDFAVYYCQQYGSPQTFGQGTKLEIKR
B2: secreted E1E2 with c-Fos/c-Jun leucine zipper scaffold (sE1E2.LZ) (other)
chain 1: YQVRNSSGLYHVTNDCPNSSIVYEAADAILHTPGCVPCVREGNASRCWVAVTPTVATRDGKLPTTQLRRHIDLLVGSATLCSALYVGDLCGSVFLVGQLFTFSPRRHWTTQDCNCSIYPGHITGHRMAWDMMMNWSPTAALVVAQLLRIPQAIMDMIAPGGRIARLEEKVKTLKAQNSELASTANMLREQVAQLKQKVMNYRRRRRR
chain 2: ETHVTGGSAGRTTAGLVGLLTPGAKQNIQLINTNGSWHINSTALNCNESLNTGWLAGLFYQHKFNSSGCPERLASCRRLTDFAQGWGPISYANGSGLDERPYCWHYPPRPCGIVPAKSVCGPVYCFTPSPVVVGTTDRSGAPTYSWGANDTDVFVLNNTRPPLGNWFGCTWMNSTGFTKVCGAPPCVIGGVGNNTLLCPTDCFRKHPEATYSRCGSGPWITPRCMVDYPYRLWHYPCTINYTIFKVRMYVGGVEHRLEAACNWTRGERCDLEDRDRSELSPLLLSTTQWQVLPCSFTTLPALSTGLIHLHQNIVDVQYLYGVGSSIASWAIPGGLTDTLQAETDQLEDKKSALQTEIANLLKEKEKLEFILAAYHHHHHH
notes: It is written here as the two chains expected after furin cleavage

For test [1], the target named is T1, membrane-bound E1E2 (mbE1E2) (Hepatitis C virus, isolate H77C …, UniProt P27958 192-746).
T1 construct: Extracted from Expi293 membranes with detergent and purified; a heterogeneous mix of oligomers
Put plainly: dose-dependent ELISA, antigen captured by GNA lectin.

Test [2] addresses B2. The description is as above.
For test [3], the target named is T2, CD81 large extracellular loop (CD81-LEL) (UniProt P60033 113-201).
T2 construct: domain: large extracellular loop (LEL); also called CD81 receptor
T2 sequence (looked up): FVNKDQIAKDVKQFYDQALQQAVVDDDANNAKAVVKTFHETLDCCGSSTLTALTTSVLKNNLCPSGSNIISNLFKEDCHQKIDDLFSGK
Nature of the test: SPR (Biacore T200); sE1E2.LZ amine-coupled to a CM5 chip, CD81-LEL injected; 1:1 model.

Test [4] concerns the target T2, CD81 large extracellular loop (CD81-LEL). Put plainly: SPR (Biacore T200), antigen amine-coupled on CM5 chip, CD81-LEL injected, single cycle kinetics, 1:1 model.
For the next test, the target named is T3, c-Fos peptide (human).
T3 construct: Synthetic biotinylated peptide
Put plainly: circular dichroism spectroscopy of mixed peptides.

Ends that are not written are not given here.

Regarding B1, the Kd in test [1] is 0.5 nM; in test [2] it was 1.3 nM.

Turning to B2, in test [3], the koff was 0.00067 s⁻¹ and the on-rate constant (kon) worked out at 63000 M⁻¹ s⁻¹. Further, the affinity in test [4], expressed as Kd, was 10.8 nM.

For RIARLEEKVKTLKAQNSELASTANMLREQVAQLKQKVMNY (also: biotinylated, position not given here, Synthetic biotinylated peptide) [c-Jun peptide], the binding result with c-Fos peptide is reported as “binds”.

(Values after patent publication US20240016923A1 (UNIVERSITY OF MARYLAND COLLEGE PARK, published 2024).)
